Holding throughout (experiment): EC50 of free RNA motif oligo competing protein binding to immobilised probe
The target in data set [1] is T1, CPSF1 (UniProt Q10570).
T1 sequence: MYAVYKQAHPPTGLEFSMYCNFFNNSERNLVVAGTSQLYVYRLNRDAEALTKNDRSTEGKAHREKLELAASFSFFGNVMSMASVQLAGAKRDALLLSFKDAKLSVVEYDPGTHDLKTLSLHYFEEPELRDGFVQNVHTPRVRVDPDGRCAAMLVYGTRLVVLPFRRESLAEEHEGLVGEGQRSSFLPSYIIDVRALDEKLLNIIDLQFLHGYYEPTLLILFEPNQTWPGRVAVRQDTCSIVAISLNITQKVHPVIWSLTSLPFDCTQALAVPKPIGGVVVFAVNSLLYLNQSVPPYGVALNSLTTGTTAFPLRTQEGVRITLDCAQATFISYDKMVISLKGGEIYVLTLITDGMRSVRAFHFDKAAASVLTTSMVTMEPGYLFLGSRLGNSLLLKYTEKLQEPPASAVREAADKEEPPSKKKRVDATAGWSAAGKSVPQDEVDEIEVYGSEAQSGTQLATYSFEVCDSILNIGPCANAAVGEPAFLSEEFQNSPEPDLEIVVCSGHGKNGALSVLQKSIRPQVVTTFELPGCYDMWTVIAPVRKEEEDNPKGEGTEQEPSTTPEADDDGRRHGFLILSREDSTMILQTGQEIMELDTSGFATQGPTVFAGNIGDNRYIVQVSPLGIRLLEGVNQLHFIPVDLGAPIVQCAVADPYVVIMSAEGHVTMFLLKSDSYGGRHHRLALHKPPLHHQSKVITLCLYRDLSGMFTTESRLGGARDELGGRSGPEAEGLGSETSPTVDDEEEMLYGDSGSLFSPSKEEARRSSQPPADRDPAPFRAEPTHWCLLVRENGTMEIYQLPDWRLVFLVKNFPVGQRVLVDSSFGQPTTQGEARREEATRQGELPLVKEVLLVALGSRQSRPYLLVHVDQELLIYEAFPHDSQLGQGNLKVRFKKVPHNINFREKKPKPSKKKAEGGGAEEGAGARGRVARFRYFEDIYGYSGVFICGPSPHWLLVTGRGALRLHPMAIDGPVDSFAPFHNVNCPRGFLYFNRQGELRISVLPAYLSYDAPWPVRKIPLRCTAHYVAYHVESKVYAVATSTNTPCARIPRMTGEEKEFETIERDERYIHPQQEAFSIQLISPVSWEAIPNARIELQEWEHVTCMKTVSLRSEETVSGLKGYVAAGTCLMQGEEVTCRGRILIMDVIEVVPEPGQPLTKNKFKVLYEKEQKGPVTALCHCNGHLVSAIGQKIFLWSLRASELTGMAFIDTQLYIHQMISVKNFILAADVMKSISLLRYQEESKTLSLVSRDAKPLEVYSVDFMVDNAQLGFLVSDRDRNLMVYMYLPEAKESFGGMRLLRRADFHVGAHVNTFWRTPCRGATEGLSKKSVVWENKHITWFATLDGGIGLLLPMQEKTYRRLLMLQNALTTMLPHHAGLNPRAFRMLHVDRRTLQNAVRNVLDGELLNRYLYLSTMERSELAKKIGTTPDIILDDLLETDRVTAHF
The method in brief: (§1)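 To obtain EC50, data were fitted with a four-parameter log-logistic model; Kd was then EC50 multiplied by a protein-dependent depletion factor. Beforehand, free RNA oligos (0 nM to 30 μM) were pre-incubated with HEK293-FT lysate (2.5 mg protein/well) for 1 h at 4°C. The lysate then spent 30 min at 4°C with the same 5′-amino-C6 oligos coupled to NHS-Sepharose beads, and bound proteins were quantified by label-free LC-MS/MS, normalised to the control.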

In data set [2] the target is T2, CPSF2 (UniProt Q9P2I0).
T2 sequence: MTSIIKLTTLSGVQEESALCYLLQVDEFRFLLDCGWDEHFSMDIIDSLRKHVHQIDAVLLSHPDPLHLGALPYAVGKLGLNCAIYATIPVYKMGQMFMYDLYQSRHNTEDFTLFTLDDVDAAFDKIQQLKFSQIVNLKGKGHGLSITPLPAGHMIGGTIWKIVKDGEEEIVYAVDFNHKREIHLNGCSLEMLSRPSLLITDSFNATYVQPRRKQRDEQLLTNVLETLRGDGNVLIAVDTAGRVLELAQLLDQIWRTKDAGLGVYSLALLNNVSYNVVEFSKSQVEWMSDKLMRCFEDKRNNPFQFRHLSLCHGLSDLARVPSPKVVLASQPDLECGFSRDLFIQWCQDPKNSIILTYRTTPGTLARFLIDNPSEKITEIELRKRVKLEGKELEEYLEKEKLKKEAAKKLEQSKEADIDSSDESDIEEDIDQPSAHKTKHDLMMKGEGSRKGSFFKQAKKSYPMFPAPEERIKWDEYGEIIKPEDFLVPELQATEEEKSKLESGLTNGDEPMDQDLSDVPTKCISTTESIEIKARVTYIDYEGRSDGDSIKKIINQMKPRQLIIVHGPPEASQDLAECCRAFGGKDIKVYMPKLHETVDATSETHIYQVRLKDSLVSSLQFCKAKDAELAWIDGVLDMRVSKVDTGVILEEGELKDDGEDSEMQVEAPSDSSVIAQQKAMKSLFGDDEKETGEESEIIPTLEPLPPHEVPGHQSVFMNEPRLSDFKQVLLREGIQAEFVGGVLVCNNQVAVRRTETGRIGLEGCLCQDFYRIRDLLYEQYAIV
The method in brief:
as §1

Data set [3] concerns the target T3, CSTF1 (UniProt Q05048).
T3 sequence: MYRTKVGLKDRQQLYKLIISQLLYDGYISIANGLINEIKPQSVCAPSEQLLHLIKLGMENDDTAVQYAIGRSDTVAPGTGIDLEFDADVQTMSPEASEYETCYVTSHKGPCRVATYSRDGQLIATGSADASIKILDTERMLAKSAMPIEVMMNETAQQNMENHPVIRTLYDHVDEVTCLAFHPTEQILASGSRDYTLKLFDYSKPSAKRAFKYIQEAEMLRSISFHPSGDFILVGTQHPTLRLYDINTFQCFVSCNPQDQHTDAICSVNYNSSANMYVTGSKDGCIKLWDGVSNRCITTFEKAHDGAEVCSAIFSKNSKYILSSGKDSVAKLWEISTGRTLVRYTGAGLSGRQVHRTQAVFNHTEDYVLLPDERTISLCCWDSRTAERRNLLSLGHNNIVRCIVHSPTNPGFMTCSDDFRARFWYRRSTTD
The method in brief:
as §1

Turning to AAUAAA, the EC50 in data set [1] was 64.4 nM; in data set [2], 68.3 nM; in data set [3], 53.9 nM.

Regarding UAUUUAU, the results for the EC50 in data set [1], in data set [2] and in data set [3] were 1710 nM, 1510 nM and 574 nM, respectively.

A word on the EC50: it is the concentration at which the effect is half-maximal. A lower EC50 goes with a more potent agent.

The values are drawn from the supplement of paper PMC6379048.
